The values that follow come from patent publication US20060281901.

The series deals with ubiquitin-amyloid-β peptide fusion protein (H6Ub-Aβ42).

B1: yeast ubiquitin hydrolase-1 (YUH-1) (protein)
chain: MSGENRAVVPIESNPEVFTNFAHKLGLKNEWAYFDIYSLTEPELLAFLPRPVKAIVLLFPINEDRKSSTSQQITSSYDVIWFKQSVKNACGLYAILHSLSNNQSLLEPGSDLDNFLKSQSDTSSSKNRFDDVTTDQFVLNVIKENVQTFSTGQSEAPEATADTNLHYITYVEENGGIFELDGRNLSGPLYLGKSDPTATDLIEQELVRVRVASYMENANEEDVLNFAMLGLGPNWE
For B1, the “electrophoresis with Coomassie staining of the enzyme reactant (cleavage of the fusion protein by ubiquitin hydrolase)” value is “the binding site between ubiquitin and amyloid-β peptide in the fusion protein is precisely cut by the action of ubiquitin hydrolase and the fusion protein is separated into a ubiquitin fragment and an amyloid-β peptide fragment”.
